Results as given in patent publication US20230407373A1 (priority 2020, published 2023).

System: HCoV-OC43 gRNA and sgRNA
Format: binding
Settings: OC43 Probe II, 12 hpi (type n_12_v), infected cells; tested against no-probe control

B1: TMPO (protein, UniProt P42166 2-694, looked up)
Lamina-associated polypeptide …: PEFLEDPSVLTKDKLKSELVANNVTLPAGEQRKDVYVQLYLQHLTARNRPPLPAGTNSKGPPDFSSDEEREPTPVLGSGAAAAGRSRAAVGRKATKKTDKPRQEDKDDLDVTELTNEDLLDQLVKYGVNPGPIVGTTRKLYEKKLLKLREQGTESRSSTPLPTISSSAENTRQNGSNDSDRYSDNEEGKKKEHKKVKSTRDIVPFSELGTTPSGGGFFQGISFPEISTRPPLGSTELQAAKKVHTSKGDLPREPLVATNLPGRGQLQKLASERNLFISCKSSHDRCLEKSSSSSSQPEHSAMLVSTAASPSLIKETTTGYYKDIVENICGREKSGIQPLCPERSHISDQSPLSSKRKALEESESSQLISPPLAQAIRDYVNSLLVQGGVGSLPGTSNSMPPLDVENIQKRIDQSKFQETEFLSPPRKVPRLSEKSVEERDSGSFVAFQNIPGSELMSSFAKTVVSHSLTTLGLEVAKQSQHDKIDASELSFPFHESILKVIEEEWQQVDRQLPSLACKYPVSSREATQILSVPKVDDEILGFISEATPLGGIQAASTESCNQQLDLALCRAYEAAASALQIATHTAFVAKAMQADISQAAQILSSDPSRTHQALGILSKTYDAASYICEAAFDEVKMAAHTMGNATVGRRYLWLKDCKINLASKNKLASTPFKGGTLFGGEVCKVIKKRGNKH
target (unweighted spectral count): 4

B2: POLG (protein, UniProt P54098 1-1239, looked up)
DNA polymerase subunit gamma-1: MSRLLWRKVAGATVGPGPVPAPGRWVSSSVPASDPSDGQRRRQQQQQQQQQQQQQPQQPQVLSSEGGQLRHNPLDIQMLSRGLHEQIFGQGGEMPGEAAVRRSVEHLQKHGLWGQPAVPLPDVELRLPPLYGDNLDQHFRLLAQKQSLPYLEAANLLLQAQLPPKPPAWAWAEGWTRYGPEGEAVPVAIPEERALVFDVEVCLAEGTCPTLAVAISPSAWYSWCSQRLVEERYSWTSQLSPADLIPLEVPTGASSPTQRDWQEQLVVGHNVSFDRAHIREQYLIQGSRMRFLDTMSMHMAISGLSSFQRSLWIAAKQGKHKVQPPTKQGQKSQRKARRGPAISSWDWLDISSVNSLAEVHRLYVGGPPLEKEPRELFVKGTMKDIRENFQDLMQYCAQDVWATHEVFQQQLPLFLERCPHPVTLAGMLEMGVSYLPVNQNWERYLAEAQGTYEELQREMKKSLMDLANDACQLLSGERYKEDPWLWDLEWDLQEFKQKKAKKVKKEPATASKLPIEGAGAPGDPMDQEDLGPCSEEEEFQQDVMARACLQKLKGTTELLPKRPQHLPGHPGWYRKLCPRLDDPAWTPGPSLLSLQMRVTPKLMALTWDGFPLHYSERHGWGYLVPGRRDNLAKLPTGTTLESAGVVCPYRAIESLYRKHCLEQGKQQLMPQEAGLAEEFLLTDNSAIWQTVEELDYLEVEAEAKMENLRAAVPGQPLALTARGGPKDTQPSYHHGNGPYNDVDIPGCWFFKLPHKDGNSCNVGSPFAKDFLPKMEDGTLQAGPGGASGPRALEINKMISFWRNAHKRISSQMVVWLPRSALPRAVIRHPDYDEEGLYGAILPQVVTAGTITRRAVEPTWLTASNARPDRVGSELKAMVQAPPGYTLVGADVDSQELWIAAVLGDAHFAGMHGCTAFGWMTLQGRKSRGTDLHSKTATTVGISREHAKIFNYGRIYGAGQPFAERLLMQFNHRLTQQEAAEKAQQMYAATKGLRWYRLSDEGEWLVRELNLPVDRTEGGWISLQDLRKVQRETARKSQWKKWEVVAERAWKGGTESEMFNKLESIATSDIPRTPVLGCCISRALEPSAVQEEFMTSRVNWVVQSSAVDYLHLMLVAMKWLFEEFAIDGRFCISIHDEVRYLVREEDRYRAALALQITNLLTRCMFAYKLGLNDLPQSVAFFSAVDIDRCLRKEVTMDCKTPSNPTGMERRYGIPQGEALDIYQIIELTKGSLEKRSQPGP
target (unweighted spectral count): 5

B3: RNPS1 (protein, UniProt Q15287 1-305, looked up)
RNA-binding protein with …: MDLSGVKKKSLLGVKENNKKSSTRAPSPTKRKDRSDEKSKDRSKDKGATKESSEKDRGRDKTRKRRSASSGSSSTRSRSSSTSSSGSSTSTGSSSGSSSSSASSRSGSSSTSRSSSSSSSSGSPSPSRRRHDNRRRSRSKSKPPKRDEKERKRRSPSPKPTKVHIGRLTRNVTKDHIMEIFSTYGKIKMIDMPVERMHPHLSKGYAYVEFENPDEAEKALKHMDGGQIDGQEITATAVLAPWPRPPPRRFSPPRRMLPPPPMWRRSPPRMRRRSRSPRRRSPVRRRSRSPGRRRHRSRSSSNSSR
target (unweighted spectral count): 7
